Measurements published in US20170015742A1 (published 2017).

Target: T1, human VEGF-A (human, UniProt P15692-4 27-191, limits assumed)
T1 construct: also called huVEGF-A
Assay: SPR (Biacore), antibody captured by anti-human Fc, VEGF-A injected
Protocol: For example, approximately 9000 RU of goat anti-human Fc specific polyclonal antibody (Thermo Fisher Scientific Inc., Rockford, Ill.) diluted in 10 mM sodium acetate (pH 4.5) is directly immobilized across a CM5 research grade biosensor chip using a standard amine coupling kit according to manufacturer's instructions and procedures at 25 μg/ml. Unreacted moieties on the biosensor surface were blocked with ethanolamine. For kinetic analysis, rate equations derived from the 1:1 Langmuir binding model were fitted simultaneously to multiple antigen injections (using global fit analysis) with the use of Scrubber 2 (BioLogic Software), Biacore Biaevaluation 4.0.1 software or Biacore T100 Evaluation software. Purified antibodies or DVD-Ig molecules were diluted in running buffer for capture across goat anti-human Fc reaction surfaces. Antibodies or DVD-Ig molecules to be captured as a ligand (1 μg/ml) were injected over reaction matrices at a flow rate of 10 μl/minute. During the assay, all measurements were referenced against the capture surface alone (i.e., with no captured antibody or DVD-Ig molecule). […] The equilibrium dissociation constant KD (M) of the reaction between antibodies and the target antigen was then calculated from the kinetic rate constants by the following formula: KD=Koff/Kₒₙ. Binding was recorded as a function of time and kinetic rate constants were calculated.

T1 sequence (P15692 other isoform, or with tags, fused parts or gaps limits assumed): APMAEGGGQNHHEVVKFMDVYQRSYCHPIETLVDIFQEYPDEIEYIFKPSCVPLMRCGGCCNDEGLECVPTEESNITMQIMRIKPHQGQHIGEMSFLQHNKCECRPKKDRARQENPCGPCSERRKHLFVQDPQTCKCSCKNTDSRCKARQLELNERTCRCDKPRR

Row | Kd | kon | Binder
1 | 5.8 pM | 1.8e+07 M⁻¹ s⁻¹ | hBDB-4G8.1 (antibody, V domains shown, Humanized IgG made from pHybE vectors in HEK293 cells) VH: EVQLVQSGSELKKPGASVKVSCKASGYTFTNYGMYWVRQAPGQGLEWMGWINTETGKPTYADDFKGRFVFSLDTSVSTAYLQISSLKAEDTAVYYCARTNYYYRSYIFYFDYWGQGTMVTVSS VL: AIQLTQSPSSLSASVGDRVTITCRASESVSTHMHWYQQKPGKAPKLLIYGASNLESGVPSRFSGSGSGTDFTLTISSLQPEDFATYYCQQSWNDPFTFGQGTKLEIK
2 | 4.8 pM | 1e+07 M⁻¹ s⁻¹ | hBDB-4G8.3 (antibody, V domains shown, Humanized IgG made from pHybE vectors in HEK293 cells) VH: EVQLVQSGSELKKPGASVKVSCKASGYTFTNYGMYWVRQAPGQGLEWMGWINTETGKPTYADDFKGRFVFSLDTSVSTAYLQISSLKAEDTAVYYCARTNYYYRSYIFYFDYWGQGTMVTVSS VL: DTVLTQSPATLSLSPGERATLSCRASESVSTHMHWYQQKPGQAPRLLIYGASNLESGVPARFSGSGSGTDFTLTISSLEPEDFAVYFCQQSWNDPFTFGQGTKLEIK
3 | 74 pM | 1.5e+07 M⁻¹ s⁻¹ | hBEW-9A8.11 (antibody, V domains shown, Humanized IgG made from pHybE vectors in HEK293 cells) VH: EVQLVQSGAEVKKPGASVKVSCKASGYTFTNYGMYWVRQAPGQGLEWMGWINTETGKPIYADDFKGRVTMTTDTSTSTAYMELRSLRSDDTAVYYCARVDYDGSFWFAYWGQGTLVTVSS VL: DIQMTQSPSSLSASVGDRVTITCRASESVSTVIHWYQQKPGKAPKLLIYGASNLESGVPSRFSGSGSGTDFTLTISSLQPEDFATYYCQQHWNDPPTFGQGTKLEIK
4 | 34 pM | 3.7e+07 M⁻¹ s⁻¹ | hBDB-4G8.7 (antibody, V domains shown, Humanized IgG made from pHybE vectors in HEK293 cells) VH: EVQLVQSGAEVKKPGASVKVSCKASGYTFTNYGMYWVRQAPGQGLEWMGWINTETGKPTYADDFKGRVTMTTDTSTSTAYMELRSLRSDDTAVYYCARTNYYYRSYIFYFDYWGQGTMVTVSS VL: AIQLTQSPSSLSASVGDRVTITCRASESVSTHMHWYQQKPGKAPKLLIYGASNLESGVPSRFSGSGSGTDFTLTISSLQPEDFATYYCQQSWNDPFTFGQGTKLEIK
5 | 8.1 pM | 2.7e+07 M⁻¹ s⁻¹ | hBDB-4G8.10 (antibody, V domains shown, Humanized IgG made from pHybE vectors in HEK293 cells) VH: EIQLVQSGAEVKKPGASVKVSCKASGYTFTNYGMYWVRQAPGQGLEYMGWINTETGKPTYADDFKGRFTFTLDTSTSTAYMELRSLRSDDTAVYFCARTNYYYRSYIFYFDYWGQGTMVTVSS VL: AIQLTQSPSSLSASVGDRVTITCRASESVSTHMHWYQQKPGKAPKLLIYGASNLESGVPSRFSGSGSGTDFTLTISSLQPEDFATYYCQQSWNDPFTFGQGTKLEIK
6 | 3.6 pM | 1.7e+07 M⁻¹ s⁻¹ | hBDB-4G8.2 (antibody, V domains shown, Humanized IgG made from pHybE vectors in HEK293 cells) VH: EVQLVQSGSELKKPGASVKVSCKASGYTFTNYGMYWVRQAPGQGLEWMGWINTETGKPTYADDFKGRFVFSLDTSVSTAYLQISSLKAEDTAVYYCARTNYYYRSYIFYFDYWGQGTMVTVSS VL: ATQLTQSPSLSASVGDRVTITCRASESVSTHMHWYQQKPGKQPKLLIYGASNLESGVPSRFSGSGSGTDFTLTISSLQPEDFATYFCQQSWNDPFTFGQGTKLEIK
7 | 1.4 pM | 2.6e+07 M⁻¹ s⁻¹ | hBDB-4G8.6 (antibody, V domains shown, Humanized IgG made from pHybE vectors in HEK293 cells) VH: EIQLVQSGSELKKPGASVKVSCKASGYTFTNYGMYWVRQAPGQGLEYMGWINTETGKPTYADDFKGRFVFSLDTSVSTAYLQISSLKAEDTAVYFCARTNYYYRSYIFYFDYWGQGTMVTVSS VL: DTVLTQSPATLSLSPGERATLSCRASESVSTHMHWYQQKPGQAPRLLIYGASNLESGVPARFSGSGSGTDFTLTISSLEPEDFAVYFCQQSWNDPFTFGQGTKLEIK
8 | 1.6 pM | 2.5e+07 M⁻¹ s⁻¹ | hBDB-4G8.5 (antibody, V domains shown, Humanized IgG made from pHybE vectors in HEK293 cells) VH: EIQLVQSGSELKKPGASVKVSCKASGYTFTNYGMYWVRQAPGQGLEYMGWINTETGKPTYADDFKGRFVFSLDTSVSTAYLQISSLKAEDTAVYFCARTNYYYRSYIFYFDYWGQGTMVTVSS VL: ATQLTQSPSLSASVGDRVTITCRASESVSTHMHWYQQKPGKQPKLLIYGASNLESGVPSRFSGSGSGTDFTLTISSLQPEDFATYFCQQSWNDPFTFGQGTKLEIK
9 | 15 pM | 9.6e+06 M⁻¹ s⁻¹ | hBEW-9A8.12 (antibody, V domains shown, Humanized IgG made from pHybE vectors in HEK293 cells) VH: EVQLVQSGAEVKKPGASVKVSCKASGYTFTNYGMYWVRQAPGQGLEWMGWINTETGKPIYADDFKGRVTMTTDTSTSTAYMELRSLRSDDTAVYYCARVDYDGSFWFAYWGQGTLVTVSS VL: DTQLTQSPSSLSASVGDRVTITCRASESVSTVIHWYQQKPGKQPKLLIHGASNLESGVPSRFSGSGSGTDFTLTISSLQPEDFATYFCQQHWNDPPTFGQGTKLEIK
10 | 5.5 pM | 2.7e+07 M⁻¹ s⁻¹ | hBDB-4G8.4 (antibody, V domains shown, Humanized IgG made from pHybE vectors in HEK293 cells) VH: EIQLVQSGSELKKPGASVKVSCKASGYTFTNYGMYWVRQAPGQGLEYMGWINTETGKPTYADDFKGRFVFSLDTSVSTAYLQISSLKAEDTAVYFCARTNYYYRSYIFYFDYWGQGTMVTVSS VL: AIQLTQSPSSLSASVGDRVTITCRASESVSTHMHWYQQKPGKAPKLLIYGASNLESGVPSRFSGSGSGTDFTLTISSLQPEDFATYYCQQSWNDPFTFGQGTKLEIK
11 | 47 pM | 1.8e+07 M⁻¹ s⁻¹ | hBDB-4G8.8 (antibody, V domains shown, Humanized IgG made from pHybE vectors in HEK293 cells) VH: EVQLVQSGAEVKKPGASVKVSCKASGYTFTNYGMYWVRQAPGQGLEWMGWINTETGKPTYADDFKGRVTMTTDTSTSTAYMELRSLRSDDTAVYYCARTNYYYRSYIFYFDYWGQGTMVTVSS VL: ATQLTQSPSLSASVGDRVTITCRASESVSTHMHWYQQKPGKQPKLLIYGASNLESGVPSRFSGSGSGTDFTLTISSLQPEDFATYFCQQSWNDPFTFGQGTKLEIK
12 | 62 pM | 1.4e+07 M⁻¹ s⁻¹ | hBDB-4G8.9 (antibody, V domains shown, Humanized IgG made from pHybE vectors in HEK293 cells) VH: EVQLVQSGAEVKKPGASVKVSCKASGYTFTNYGMYWVRQAPGQGLEWMGWINTETGKPTYADDFKGRVTMTTDTSTSTAYMELRSLRSDDTAVYYCARTNYYYRSYIFYFDYWGQGTMVTVSS VL: DTVLTQSPATLSLSPGERATLSCRASESVSTHMHWYQQKPGQAPRLLIYGASNLESGVPARFSGSGSGTDFTLTISSLEPEDFAVYFCQQSWNDPFTFGQGTKLEIK
13 | 1.2 pM | 2.6e+07 M⁻¹ s⁻¹ | hBDB-4G8.12 (antibody, V domains shown, Humanized IgG made from pHybE vectors in HEK293 cells) VH: EIQLVQSGAEVKKPGASVKVSCKASGYTFTNYGMYWVRQAPGQGLEYMGWINTETGKPTYADDFKGRFTFTLDTSTSTAYMELRSLRSDDTAVYFCARTNYYYRSYIFYFDYWGQGTMVTVSS VL: DTVLTQSPATLSLSPGERATLSCRASESVSTHMHWYQQKPGQAPRLLIYGASNLESGVPARFSGSGSGTDFTLTISSLEPEDFAVYFCQQSWNDPFTFGQGTKLEIK
14 | 1.3 pM | 2.6e+07 M⁻¹ s⁻¹ | hBDB-4G8.11 (antibody, V domains shown, Humanized IgG made from pHybE vectors in HEK293 cells) VH: EIQLVQSGAEVKKPGASVKVSCKASGYTFTNYGMYWVRQAPGQGLEYMGWINTETGKPTYADDFKGRFTFTLDTSTSTAYMELRSLRSDDTAVYFCARTNYYYRSYIFYFDYWGQGTMVTVSS VL: ATQLTQSPSLSASVGDRVTITCRASESVSTHMHWYQQKPGKQPKLLIYGASNLESGVPSRFSGSGSGTDFTLTISSLQPEDFATYFCQQSWNDPFTFGQGTKLEIK
15 | 7.6 pM | 2.2e+07 M⁻¹ s⁻¹ | hBDB-4G8.13 (antibody, V domains shown, Humanized IgG made from pHybE vectors in HEK293 cells) VH: EIQLVQSGTEVKKPGESLKISCKASGYTFTNYGMYWVKQMPGKGLEYMGWINTETGKPTYADDFKGRFTFSLDKSFNTAFLQWSSLKASDTAMYFCARTNYYYRSYIFYFDYWGQGTMVTVSS VL: ETVLTQSPATLSVSPGERATLSCRASESVSTHMHWYQQKPGQAPRLLIYGASNLESGVPARFSGSGSGTDFTLTISSLQSEDFAVYFCQQSWNDPFTFGQGTRLEIK
16 | 3.7 pM | 1.5e+07 M⁻¹ s⁻¹ | hBDB-4G8.14 (antibody, V domains shown, Humanized IgG made from pHybE vectors in HEK293 cells) VH: EIQLVQSGGGVVQPGGSLRLSCAASGYTFTNYGMYWVKQAPGKGLEYMGWINTETGKPTYADDFKGRFTFSLDTSKSTAYLQLNSLRAEDTAVYFCARTNYYYRSYIFYFDYWGQGTLVTVSS VL: DTVLTQSPSTLSASPGERATISCRASESVSTHMHWYQQKPGQAPKLLIYGASNLESGVPSRFSGSRSGTDFTLTISSLQPEDFAVYFCQQSWNDPFTFGQGTKVEIK
17 | 1.6 pM | 7.6e+06 M⁻¹ s⁻¹ | hBEW-9A8.20 (antibody, V domains shown, Humanized IgG made from pHybE vectors in HEK293 cells) VH: EIQLVQSGAEVKKPGASVKVSCKASGYTFTNYGMYWVKQAPGQGLEYMGWINTETGKPIYADDFKGRFTFTLDTSTSTAYMELRSLRSDDTAVYYCARVDYDGSFWFAYWGQGTLVTVSS VL: ETVLTQSPATLSLSPGERATLSCRASESVSTVIHWYQQKPGQQPRLLIHGASNLESGVPARFSGSGSGTDFTLTISSLEPEDFAVYFCQQHWNDPPTFGQGTKLEIK
18 | 4.4 pM | 2e+07 M⁻¹ s⁻¹ | hBDB-4G8.15 (antibody, V domains shown, Humanized IgG made from pHybE vectors in HEK293 cells) VH: EVQLVESGGGLVQPGGSLRLSCAASGYTFTNYGMYWVKQAPGKGLEYMGWINTETGKPTYADDFKGRFTFSLDTSKSTAYLQMNSLRAEDTAVYFCARTNYYYRSYIFYFDYWGQGTLVTVSS VL: DTQLTQSPSSLSASVGDRVTISCRASESVSTHMHWYQQKPGKAPKLLIYGASNLESGVPSRFSGSGSGTDFTLTISSLQPEDFATYFCQQSWNDPFTFGQGTKVEIK
19 | 820 pM | 1e+07 M⁻¹ s⁻¹ | hBEW-9A8.9 (antibody, V domains shown, Humanized IgG made from pHybE vectors in HEK293 cells) VH: EVQLVQSGAEVKKPGASVKVSCKASGYTFTNYGMYWVRQAPGQGLEWMGWINTETGKPIYADDFKGRVTMTTDTSTSTAYMELRSLRSDDTAVYYCARVDYDGSFWFAYWGQGTLVTVSS VL: EIVLTQSPDFQSVTPKEKVTITCRASESVSTVIHWYQQKPDQSPKLLIKGASNLESGVPSRFSGSGSGTDFTLTINSLEAEDAATYYCQQHWNDPPTFGQGTKLEIK
